Test results taken from article PMC314469, “Protein Interaction Networks by Proteome Peptide Scanning” (PLoS Biology, 2004).

T1: Myo5 SH3 (MYO5_YEAST), Q04439
T1 chain: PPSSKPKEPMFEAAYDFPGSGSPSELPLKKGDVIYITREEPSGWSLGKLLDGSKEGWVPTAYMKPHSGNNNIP

T2: Abp1 SH3 (ABP1_YEAST), P15891
T2 chain: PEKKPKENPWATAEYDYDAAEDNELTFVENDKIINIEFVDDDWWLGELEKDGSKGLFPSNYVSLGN


Experiments:
[1] = target: T1, Myo5 SH3 (MYO5_YEAST), Q04439; assay: SPOT array
[2] = target: T2, Abp1 SH3 (ABP1_YEAST), P15891; assay: SPOT array

Binder	normalised SPOT signal, Boehringer light units (BLU); mean over the file's lines of this peptide [1]	normalised SPOT signal, Boehringer light units (BLU); mean over the file's lines of this peptide [2]
NLAPFTQPDFPFQT [YOR260W 14-27]	81.4	
NLHGYGHPNPPNEK [YHR135C 370-383]	217	
NLLSLENPVVPSHY [YIL137C 4-17]	75.6	
NPFPFPIPEIPSTQ [YOR181W 270-283]	86.5	
NPGSMSMPGVPTSM [YNL288W 26-39]	190	
NPLYWLLPSHPYTI [YGL160W 297-310]	165	
NPQSLARPPPPKRI [YKL139W 28-41]	248	
PAPPPPPPPPPPP [YNL271C 1278-1290]	53300	
PEDFLPPPPKPHFA [YLR285W 17-30]	126	
PEGVFSIPAPPPNV [YGR094W 179-192]	82.5	
PEHLFNNPQNPMDF [YBR238C 623-636]	157	
PEPTMGSPDAPPLV [YLR357W 573-586]	107	
PETRMDLPFSPEVN [YDR171W 234-247]	130	
PEVHHHSPGVPSLV [YLR229C 99-112]	331	
PEVKHFSPSTPIML [YKR055W 169-182]	93.7	
PEVLMDQPYSPLSD [YAR018C 257-270]	78.7	
PFGTFTLPADPEYK [YNL134C 307-320]	172	
PFIDYEFPHLPNEL [YOR037W 215-228]	98.9	
PFSSMKEPFIPQSS [YBR172C 147-160]	411	

Binder	normalised SPOT signal, Boehringer light units (BLU); mean over the file's lines of this peptide [1]	normalised SPOT signal, Boehringer light units (BLU); mean over the file's lines of this peptide [2]
PFYTMPDPANPKYS [YLL018C 454-467]	145	
PLAPLPPPPPPSVA [YLR337C 421-434]	4750	
PLFGLSIPKTPTLK [YBL035C 102-115]	122	
PLNQLPNPAMPLLH [YER169W 383-396]	104	
PLPTFSAPSLPQQS [YLR337C 659-672]	47000	
PLTTLPPPRLPSIQ [YCR033W 1026-1039]	2790	
PPEGFPEPLNPTNF [YIL005W 29-42]	86	
PPKLLVYPESPETN [YBR279W 23-36]	91.3	
PPLDFEQPRLPSTA [YAL017W 90-103]	192	
PPMAYNRPVYPPPQ [YOR197W 87-100]	6720	
PPPDFNDPTAPLSS [YGL014W 93-106]	153	
PPPPLPPPLFPSSS [YER033C 119-132]	38500	
PPPPMGQPKDPKFE [YKL129C 1112-1125]	248	
PPPPPPPPPVPA [YNL271C 1240-1251]	95700	
PPQTHQSPPPPPQQ [YBR289W 73-86]	222	
QASMLRRPSLPHID [YKR077W 284-297]	1100	
QEISLIDPSTPDKA [YGR083C 349-362]	155	
QELPMEVPKEPAPA [YLR399C 121-134]	139	
QELRFLVPLVPLLV [YOR149C 314-327]	119	

Binder	normalised SPOT signal, Boehringer light units (BLU); mean over the file's lines of this peptide [1]	normalised SPOT signal, Boehringer light units (BLU); mean over the file's lines of this peptide [2]
QENPYIIPLPPSST [YBR212W 12-25]	240	
QFQKLVPPTLPENV [YIL132C 50-63]	154	
QFSGLLEPSLPNNM [YJL046W 318-331]	84.4	
QFSPMDDPKSPTPM [YCL029C 108-121]	121	
NESFSLPPPQPKP [YFL044C 78-90]		61.2
NESPRNVPIMVKP [YLL043W 210-222]		217
NEYKGLITIIPSKP [YOL152W 549-562]		77.6
NFEVSHKPTVEKP [YPL095C 323-335]		185
NGEEAEEVVVPEKP [YJL214W 46-59]		539
NHAINRIPIKLRP [YGL156W 1061-1073]		3450
NHASENTPRDGKP [YLR356W 137-149]		97
NHGFLLPPENIKP [YHR132C 397-409]		6.9
NHTIWVGPGKDKP [YHR015W 379-391]		285
NIEDITEPKPDKP [YDR363W 94-106]		75.1
NIETHENERLPPRP [YAL023C 524-537]		117
NIKMASFLPVPEKP [YNL206C 122-135]		387
NIKVLLNPKLGKP [YLL007C 14-26]		93.7
NIPKPHIPYFMKP [YBR286W 82-94]		1120
NIPPPPPPPPPKP [YMR089C 153-165]		38.2
